Laboratory results: publication doi:10.1101/2022.11.10.515958 (bioRxiv, 2022)

Biological target: T1, GST-Whi7 (S. cerevisiae, UniProt P36167 1-246)
T1 sequence (looked up): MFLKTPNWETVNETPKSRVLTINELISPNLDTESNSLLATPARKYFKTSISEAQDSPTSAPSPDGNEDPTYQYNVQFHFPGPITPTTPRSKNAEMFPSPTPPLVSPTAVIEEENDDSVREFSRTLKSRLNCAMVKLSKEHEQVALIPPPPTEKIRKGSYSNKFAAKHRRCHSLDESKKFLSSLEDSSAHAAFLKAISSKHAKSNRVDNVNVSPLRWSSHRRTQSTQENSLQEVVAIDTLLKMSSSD
Assay: pull-down

B1: Cks1-ALFA (natural protein, S. cerevisiae, UniProt P20486 1-150, looked up)
chain: MYHHYHAFQGRKLTDQERARVLEFQDSIHYSPRYSDDNYEYRHVMLPKAMLKVIPSDYFNSEVGTLRILTEDEWRGLGITQSLGWEHYECHAPEPHILLFKRPLNYEAELRAATAAAQQQQQQQQQQQQQQQQHQTQSISNDMQVPPQIS
B1: binds.
